Experimental data taken from patent publication US20240141027A1 (BIOARCTIC, published 2024).

Key:
[1] = molecular target: T1, recombinant murine transferrin receptor 1 (mTfR1), extracellular domain fused to a His-tag (murine, UniProt Q62351 89-763); assay: BLI (Octet), mTfR1 captured on biotinylated human holo-transferrin on streptavidin sensors
T1 construct: Position of the His-tag (N or C) unknown; also called recombinant mTfR1; murine TfR1; not shown: His-tag
Procedure: Binding of expressed constructs to mTfR1 was assessed by Bio-Layer Interferometry (Octet RED384, ForteBio). High-precision streptavidin sensors were loaded in two consecutive steps: first with 20 μg/ml of biotinylated human holo-transferrin (Sigma) during 180 s and then with 20 μg/ml recombinant mTfR1, produced as described in Example 4, during 180 s. Thereafter, association of the samples to the loaded sensors was measured for 120 s, followed by dissociation for 300 s. Binding was analyzed with samples diluted to 17.5 μg/ml for mAb158-scLc-8D3-Ig.1 and mAb158-scLc-8D3-Ig.2, to 18 μg/ml for mAb158-scLc-8D3-Ig.3 and to 4.9 μg/ml for 8D3 Fab (corresponding to 100 nM of respective binding molecule). The response from a buffer sample was subtracted. All samples were diluted in 1× Kinetics buffer (ForteBio). The same buffer was used for baseline and dissociation steps. […] As controls, the 8D3 Fab and the antibody mAb158 IgG were included.

recombinant Aβ1-42 = molecular target: T2, recombinant Aβ1-42; assay: indirect ELISA, plates coated with recombinant Aβ1-42
T2 construct: Coated at 0.5 µg/ml on ELISA plates; also called Amyloid Beta (Aβ1-42)
T2 sequence (peptide, as listed by the source): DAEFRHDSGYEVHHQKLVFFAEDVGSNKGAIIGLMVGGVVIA

[2] = molecular target: T1, recombinant murine transferrin receptor …; assay: BLI (Octet), mTfR1 captured on holo-transferrin sensors, analyte 50 nM

T1 sequence (Q62351 89-763): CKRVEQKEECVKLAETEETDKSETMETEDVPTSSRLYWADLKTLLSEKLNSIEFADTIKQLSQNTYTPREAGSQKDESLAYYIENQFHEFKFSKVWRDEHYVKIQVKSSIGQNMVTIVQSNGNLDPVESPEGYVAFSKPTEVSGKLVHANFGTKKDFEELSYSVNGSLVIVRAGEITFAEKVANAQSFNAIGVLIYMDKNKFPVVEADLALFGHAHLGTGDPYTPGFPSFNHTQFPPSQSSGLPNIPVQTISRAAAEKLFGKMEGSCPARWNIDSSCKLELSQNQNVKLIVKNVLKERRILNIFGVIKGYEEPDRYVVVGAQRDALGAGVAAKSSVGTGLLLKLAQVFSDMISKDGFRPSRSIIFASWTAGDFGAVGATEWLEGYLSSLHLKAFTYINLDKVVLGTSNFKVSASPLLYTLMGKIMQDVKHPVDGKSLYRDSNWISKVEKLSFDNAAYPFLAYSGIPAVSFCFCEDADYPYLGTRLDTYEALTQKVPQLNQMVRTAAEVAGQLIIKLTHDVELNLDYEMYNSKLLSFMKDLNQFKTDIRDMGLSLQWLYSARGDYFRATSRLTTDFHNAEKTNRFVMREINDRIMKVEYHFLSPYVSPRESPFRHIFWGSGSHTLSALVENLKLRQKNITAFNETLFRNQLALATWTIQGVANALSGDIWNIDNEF

| binding result [1] | binding result (recombinant Aβ1-42) | binding result [2] | Binder |
| --- | --- | --- | --- |
| no binding |  |  | mAb158-scLc-Ig.6 (antibody, human IgG1, kappa) heavy: not shown DIVMTQAPLSLPVSLGDQASISCRSSQSIVHSNGNTYLEWYLQKPGQSPKLLIYKVSNRFSGVPDRFSGSGSGTDFTLKISRVEAEDLGIYYCFQGSHVPPTFGGGTKLEIKRADAAPTVSIFPPSSEQLTSGGASVVCFLNNFYPKDINVKWKIDGSERQNGVLNSWTDQDSKDSTYSMSSTLTLTKDEYERHNSYTCEATHKTSTSPIVKSFNRNECGGGGSGGGGSGGGGSGGGGSGGGGSGGGGSGGGGSGGGGSGGGGSGGGGSDIVMTQAPLSLPVSLGDQASISCRSSQSIVHSNGNTYLEWYLQKPGQSPKLLIYKVSNRFSGVPDRFSGSGSGTDFTLKISRVEAEDLGIYYCFQGSHVPPTFGGGTKLEIKRADAAPTVSIFPPSSEQLTSGGASVVCFLNNFYPKDINVKWKIDGSERQNGVLNSWTDQDSKDSTYSMSSTLTLTKDEYERHNSYTCEATHKTSTSPIVKSFNRNEC |
|  | binds | binds | mAb158-scLc-8D3-Ig.15 (bispecific antibody, human IgG1, kappa, Format [LC-L1-scBM-L2-LC]; also called mAb158-scLc-Ig.15) heavy: not shown DIVMTQAPLSLPVSLGDQASISCRSSQSIVHSNGNTYLEWYLQKPGQSPKLLIYKVSNRFSGVPDRFSGSGSGTDFTLKISRVEAEDLGIYYCFQGSHVPPTFGGGTKLEIKRADAAPTVSIFPPSSEQLTSGGASVVCFLNNFYPKDINVKWKIDGSERQNGVLNSWTDQDSKDSTYSMSSTLTLTKDEYERHNSYTCEATHKTSTSPIVKSFNRNECGGGGSGGGGSGGGGSGGGGSGGGGSDIQMTQSPASLSASLEEIVTITCQASQDIGNWLAWYQQKPGKSPQLLIYGATSLADGVPSRFSGSRSGTQFSLKISRVQVEDIGIYYCLQAYNTPWTFGGGTKLELKRGGGGSGGGGSGGGGSEVQLVESGGGLVQPGNSLTLSCVASGFTFSNYGMHWIRQAPKKGLEWIAMIYYDSSKMNYADTVKGRFTISRDNSKNTLYLEMNSLRSEDTAMYYCAVPTSHYVVDVWGQGVSVTVSSGGGGSGGGGSGGGGSGGGGSDIVMTQAPLSLPVSLGDQASISCRSSQSIVHSNGNTYLEWYLQKPGQSPKLLIYKVSNRFSGVPDRFSGSGSGTDFTLKISRVEAEDLGIYYCFQGSHVPPTFGGGTKLEIKRADAAPTVSIFPPSSEQLTSGGASVVCFLNNFYPKDINVKWKIDGSERQNGVLNSWTDQDSKDSTYSMSSTLTLTKDEYERHNSYTCEATHKTSTSPIVKSFNRNEC |
| no binding (tested: 50 nM) |  |  | mAb158 IgG (antibody, V domains shown, also called unmodified mAb158 IgG control; unmodified mAb158 control) VH: EVKLMESGGGLVQPGGSRKLSCAASGFTFSSFGMHWVRQAPEKGLEWVAYISSGSSTIYYGDTVKGRFTISRDNPKNTLFLQMTSLRSEDTAMYYCAREGGYYYGRSYYTMDYWGQGTSVTVSS VL: DIVMTQAPLSLPVSLGDQASISCRSSQSIVHSNGNTYLEWYLQKPGQSPKLLIYKVSNRFSGVPDRFSGSGSGTDFTLKISRVEAEDLGIYYCFQGSHVPPTFGGGTKLEIKR |

The next lines start with the binder.

| Binder | binding result [1] | binding result (recombinant Aβ1-42) | binding result [2] |
| --- | --- | --- | --- |
| mAb158-scLc-8D3-Ig.4 (bispecific antibody, human IgG1, kappa, Format [LC-L1-LC-L2-scBM]) heavy: not shown DIVMTQAPLSLPVSLGDQASISCRSSQSIVHSNGNTYLEWYLQKPGQSPKLLIYKVSNRFSGVPDRFSGSGSGTDFTLKISRVEAEDLGIYYCFQGSHVPPTFGGGTKLEIKRADAAPTVSIFPPSSEQLTSGGASVVCFLNNFYPKDINVKWKIDGSERQNGVLNSWTDQDSKDSTYSMSSTLTLTKDEYERHNSYTCEATHKTSTSPIVKSFNRNECGGGGSGGGGSGGGGSGGGGSGGGGSGGGGSDIVMTQAPLSLPVSLGDQASISCRSSQSIVHSNGNTYLEWYLQKPGQSPKLLIYKVSNRFSGVPDRFSGSGSGTDFTLKISRVEAEDLGIYYCFQGSHVPPTFGGGTKLEIKRADAAPTVSIFPPSSEQLTSGGASVVCFLNNFYPKDINVKWKIDGSERQNGVLNSWTDQDSKDSTYSMSSTLTLTKDEYERHNSYTCEATHKTSTSPIVKSFNRNECGGGGSGGGGSGGGGSEVQLVESGGGLVQPGNSLTLSCVASGFTFSNYGMHWIRQAPKKGLEWIAMIYYDSSKMNYADTVKGRFTISRDNSKNTLYLEMNSLRSEDTAMYYCAVPTSHYVVDVWGQGVSVTVSSGGGGSGGGGSGGGGSDIQMTQSPASLSASLEEIVTITCQASQDIGNWLAWYQQKPGKSPQLLIYGATSLADGVPSRFSGSRSGTQFSLKISRVQVEDIGIYYCLQAYNTPWTFGGGTKLELKR | binds |  |  |
| mAb158-scLc-8D3-Ig.5 (bispecific antibody, human IgG1, kappa, Format [LC-L1-LC-L2-scBM]) heavy: not shown DIVMTQAPLSLPVSLGDQASISCRSSQSIVHSNGNTYLEWYLQKPGQSPKLLIYKVSNRFSGVPDRFSGSGSGTDFTLKISRVEAEDLGIYYCFQGSHVPPTFGGGTKLEIKRADAAPTVSIFPPSSEQLTSGGASVVCFLNNFYPKDINVKWKIDGSERQNGVLNSWTDQDSKDSTYSMSSTLTLTKDEYERHNSYTCEATHKTSTSPIVKSFNRNECGGGGSGGGGSGGGGSGGGGSGGGGSGGGGSGGGGSGGGGSGGGGSGGGGSDIVMTQAPLSLPVSLGDQASISCRSSQSIVHSNGNTYLEWYLQKPGQSPKLLIYKVSNRFSGVPDRFSGSGSGTDFTLKISRVEAEDLGIYYCFQGSHVPPTFGGGTKLEIKRADAAPTVSIFPPSSEQLTSGGASVVCFLNNFYPKDINVKWKIDGSERQNGVLNSWTDQDSKDSTYSMSSTLTLTKDEYERHNSYTCEATHKTSTSPIVKSFNRNECGGGGSGGGGSGGGGSEVQLVESGGGLVQPGNSLTLSCVASGFTFSNYGMHWIRQAPKKGLEWIAMIYYDSSKMNYADTVKGRFTISRDNSKNTLYLEMNSLRSEDTAMYYCAVPTSHYVVDVWGQGVSVTVSSGGGGSGGGGSGGGGSDIQMTQSPASLSASLEEIVTITCQASQDIGNWLAWYQQKPGKSPQLLIYGATSLADGVPSRFSGSRSGTQFSLKISRVQVEDIGIYYCLQAYNTPWTFGGGTKLELKR | binds |  |  |
